Experimental data reported in patent US20240400717A1, “Antibody Binding to CHI3L1 for Treating Cancer” (National Cheng Kung University, priority 2021, published 2024).

B1: #R4-63: fully human anti-CHI3L1 mAb, Table 1 No. 38; heavy chain SEQ ID NO: 49, light chain SEQ ID NO: 50 (antibody, listed as Homo sapiens)
VH: EVQLVQSGAEVKKPGATVKISCKVSGYTFTDYYMHWVQQAPGKGLEWMGLVDPEDGETIYAEKFQGRVTITADTSTDTAYMELSSLRSEDTAVYYCATIGRPPDYWGQGTTVTVSS
light: QSVLTQPPSVSAAPGQKVTISCSGSSSNIGNNYVSWYQQLPGTAPKLLIYDNNKRPSGIPDRFSGSKSGTSATLGITGLQTGDEADYYCGTWDSSLSVWVFGGGTKLTVLGQPKAAPSVTLFPPSSEELQANKATLVCLISDFYPGAVTVAWKADSSPVKAGVETTTPSKQSNNKYAASSYLSLTPEQWKSHKSYSCQVTHEGSTVEKTVAPTECS
B2: #R4-62: fully human anti-CHI3L1 mAb, Table 1 No. 37; heavy chain SEQ ID NO: 41, light chain SEQ ID NO: 42 (antibody, listed as Homo sapiens)
VH: EVQLVESGGGLVQPGGSLRLSCAASGLTFPNFAMTWVRQTPGKGLQWVSTISGRGDEPFYADSVKGRFTISRDNSKNMVYLHMNSLRAEDTAIYYCAKGGHFSSWDYWGQGTLVTVSS
light: NFMLTQPHSVSESPGKTVTISCTRSSGSIASNYVQWYQQRPDSAPTTVIYEDIERPSGVPDRFSGAIDSSANSASLTISGLQTEDEADYYCQSYDSSSYVFGTGTKVTVLGQPKANPTVTLFPPSSEELQANKATLVCLISDFYPGAVTVAWKADGSPVKAGVETTKPSKQSNNKYAASSYLSLTPEQWKSHRSYSCQVTHEGSTVEKTVAPTECS
B3: #293R3-5: fully human anti-CHI3L1 mAb, Table 1 No. 5; heavy chain SEQ ID NO: 81, light chain SEQ ID NO: 82 (antibody, listed as Homo sapiens)
VH: EVQLVQSGAGVKKPGATVKISCKVSGYTFTDYYMHWVQQAPGKGLEWMGLVDPEDGETIYAEKFQGRVTITADTSTDTAYMELSSLRSEDTAVYYCATASPREEMPYYFDYWGQGTLVTVSS
light: SYELTQPPSVSVSPGQTASITCSGDILADQYASWYQQKPGQSPVLVIYHDTKRPSGVPERFSGSTSGNTATLTISGTQAMDEAAYYCQAWDINTAWVFGGGTQLTVLGQPKAAPSVTLFPPSSEELQANKATLVCLISDFYPGAVTVAWKADSSPVKAGVETTTPSKQSNNKYAASSYLSLTPEQWKSHRSYSCQVTHEGSTVEKTVAPTECS
B4: #R4-53: fully human anti-CHI3L1 mAb, Table 1 No. 33; heavy chain SEQ ID NO: 25, light chain SEQ ID NO: 26 (antibody, listed as Homo sapiens)
VH: QVQLVQSGAEVKKPGASVKVSCKASGYTFTSYYMHWVRQAPGQGLEWMGIINPSGGSTSYAQKFQGRVTMTRDTSTSTVYMELSSLRSEDTAVYYCASDIGDYGDYWGQGTTVTVSS
light: SYVLTQPPSVSVALGQTARITCGGNNIESKIVSWYQQKPGQAPVLVIFYDTDRPSGISERFSGSNSGNTATLTISRVEAGDEADYYCQVWDSNSDHVIFGGGTKLTVLGQPKAAPSVTLFPPSSEELQANKATLVCLISDFYPGAVTVAWKADSSPVKAGVETTTPSKQSNNKYAASSYLSLTPEQWKSHRSYSCQVTHEGSTVEKTVAPTECS
B5: #R4-2: fully human anti-CHI3L1 mAb, Table 1 No. 7; heavy chain SEQ ID NO: 1, light chain SEQ ID NO: 2 (antibody, listed as Homo sapiens)
heavy: QVQLVQSGAEVKKPGSSVKVSCKASGGTFSSYAISWVRQAPGQGLEWMGGIIPIFGTANYAQKFQGRVTITADESTSTAYMELSSLRSEDTAVYYCARGDIEYYDILTGYYYYFDYWGQGTLVTVSS
light: SYVLTQPPSVSVAPGKAARVTCGGNDIGSKSVQWYQQKPGQAPVLVISYDNDRPSGIPERFSGSNSGNTATLTISRVEAGDEADYYCQVWDSTSDHYVFGTGTKVTVQGQPKANPTVTLFPPSSEELQANKATLVCLISDFYPGAVTVAWKADSSPVKAGVETTTPSKQSNNKYAASSYLSLTPEQWKSHRSYSCQVTHEGSTVEKTVAPTECS

biological target: T1, CHI3L1 binding to IL-13Rα2 on A549 cell line (Homo sapiens, UniProt P36222); test: Functional screen: block of CHI3L1 binding to IL-13Rα2 on A549 cell line; format: cell-based; details: A549 cells, compared with CHI3L1 only
T1 construct: host or cells: A549 cells carry the receptor
From the text: CHI3L1 is known to associate with different receptors, such as IL-13Rα2 (He et al. 2013), CRTH2 (Zhou et al. 2015), TMEM219 (Lee et al. 2016), and galectin-3 (Zhou et al. 2015). […] Therefore, purified antibody leads were functionally screened for their ability to block CHI3L1 binding to IL-13Rα2 on A549 cell line (FIG. 3A). […] The sequences and defied CDR regions among those monoclonal antibodies are listed and summarized in the sequences list (SEQ ID NOs: 1 to 88) and Table 2, respectively. Anti-CHI3L1 clone R4-2 heavy chain (SEQ ID NO: 1), anti-CHI3L1 clone R4-2 light chain (SEQ ID NO: 2), anti-CHI3L1 clone R4-4 heavy chain (SEQ ID NO: 9), anti-CHI3L1 clone R4-4 light chain (SEQ ID NO: 10), anti-CHI3L1 clone R4-39 heavy chain (SEQ ID NO: 17), anti-CHI3L1 clone R4-39 light chain (SEQ ID NO: 18), anti-CHI3L1 clone R4-53 heavy chain (SEQ ID NO: 25), anti-CHI3L1 clone R4-53 light chain (SEQ ID NO: 26), anti-CHI3L1 clone R4-54 heavy chain (SEQ ID NO: 33), anti-CHI3L1 clone R4-54 light chain (SEQ ID NO: 34), anti-CHI3L1 clone R4-62 heavy chain (SEQ ID NO: 41), anti-CHI3L1 clone R4-62 light chain (SEQ ID NO: 42), anti-CHI3L1 clone R4-63 heavy chain (SEQ ID NO: 49), anti-CHI3L1 clone R4-63 light chain (SEQ ID NO: 50), anti-CHI3L1 clone R4-93 heavy chain (SEQ ID NO: 57), anti-CHI3L1 clone R4-93 light chain (SEQ ID NO: 58), anti-CHI3L1 clone 293R3-2 heavy chain (SEQ ID NO: 65), anti-CHI3L1 clone 293R3-2 light chain (SEQ ID NO: 66), anti-CHI3L1 clone 293R3-4 heavy chain (SEQ ID NO: 73), anti-CHI3L1 clone 293R3-4 light chain (SEQ ID NO: 74), anti-CHI3L1 clone 293R3-5 heavy chain (SEQ ID NO: 81), and anti-CHI3L1 clone 293R3-5 light chain (SEQ ID NO: 82) are shown in sequence listing.

T1 sequence (P36222 22-383): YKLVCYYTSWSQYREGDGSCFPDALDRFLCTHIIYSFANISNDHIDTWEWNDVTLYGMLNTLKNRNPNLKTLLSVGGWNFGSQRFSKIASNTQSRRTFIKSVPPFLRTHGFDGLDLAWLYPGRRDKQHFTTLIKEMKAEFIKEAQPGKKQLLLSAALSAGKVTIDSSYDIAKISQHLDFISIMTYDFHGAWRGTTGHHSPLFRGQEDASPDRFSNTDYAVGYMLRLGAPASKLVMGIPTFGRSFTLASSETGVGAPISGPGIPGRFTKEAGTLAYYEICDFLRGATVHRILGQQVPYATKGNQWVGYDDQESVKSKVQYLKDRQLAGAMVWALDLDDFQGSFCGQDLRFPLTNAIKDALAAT

CHI3L1 neutralizing activity	Molecule
best neutralizing activity	B1
best neutralizing activity	B2
best neutralizing activity	B3
best neutralizing activity	B4
best neutralizing activity	B5
